Results reported in the RNAGym collection of RNA variant scans (doi:10.1021/acssynbio.7b00057).

B1: Pistol ribozyme (parent)
chain: GGGUCGUUGUUCCAUAAUCGCGUGGAUAUGGCACGCAAGUUUCUACCGGGCACCGUAAAUGUCCGACUGGAGCCGUUCGGGCGGCUAUAAACAGACCUCAGGCCCGAAGCGUGGCGGCACCUGCCGCCGGUGGUAAAAAAGAUCGGAAGAGCACACGUCU

Variants of: B1
Assay: aptazyme ON/OFF ratio, guanine; higher = stronger switching; co-transcriptional cleavage with and without guanine

Which “aptazyme ON/OFF ratio” value does the source give for U7G G9U U10C U11A C13U here?
Its value is 1.36.

For U7G U8G G9A U10C C12U C13G, which “aptazyme ON/OFF ratio” value is on record?
Its value is 1.18.

Which “aptazyme ON/OFF ratio” value does the source give for U7C U8C G9C U10G U11C C12G C13U here?
The value was 1.11.

With U7A U8C G9U U10G U11C C12G as the variant, how does the “aptazyme ON/OFF ratio” value read?
The value was 1.32.

With U7G U8G G9U U11G C12U C13G as the variant, how does the “aptazyme ON/OFF ratio” value read?
The value was 1.2.

For U7A U8A G9C U10A U11C, which “aptazyme ON/OFF ratio” value is on record?
Its value is 1.04.

Which “aptazyme ON/OFF ratio” value does the source give for U7C U8A U10A U11G C12G C13A here?
Its value is 1.03.

With U7G U8A G9C U10A U11C C12A as the variant, how does the “aptazyme ON/OFF ratio” value read?
The value was 1.05.

For U7C U8C G9A U10A U11A C12U, which “aptazyme ON/OFF ratio” value is on record?
Its value is 1.41.

For U7G U8C G9C U10A U11C C13U, which “aptazyme ON/OFF ratio” value is on record?
Its value is 1.25.

With U7G G9A U10C U11G C12A C13G as the variant, how does the “aptazyme ON/OFF ratio” value read?
Its value is 1.1.

With U8G G9C U11A C12U C13A as the variant, how does the “aptazyme ON/OFF ratio” value read?
The value was 1.03.

For U8G G9U C12A C13G, which “aptazyme ON/OFF ratio” value is on record?
Its value is 1.22.

Which “aptazyme ON/OFF ratio” value does the source give for U7G U8A G9C U10G U11C C12A C13G here?
The value was 1.02.

With U7C U8C G9A U10G U11C C13A as the variant, how does the “aptazyme ON/OFF ratio” value read?
The value was 1.24.

With U7G G9U U10C C12A C13G as the variant, how does the “aptazyme ON/OFF ratio” value read?
The value was 1.21.

With U7C G9U U10C U11A C12U as the variant, how does the “aptazyme ON/OFF ratio” value read?
The value was 1.19.

For U7A U8G G9A U10G U11A C12A C13U, which “aptazyme ON/OFF ratio” value is on record?
Its value is 1.11.

Which “aptazyme ON/OFF ratio” value does the source give for U7A U8G G9A U10C U11G C12G C13G here?
Its value is 1.16.

Which “aptazyme ON/OFF ratio” value does the source give for U7G U8C C13U here?
The value was 1.46.

For U7A U8A G9C U11A C12U C13U, which “aptazyme ON/OFF ratio” value is on record?
Its value is 1.2.

With U8A G9C U10G C13A as the variant, how does the “aptazyme ON/OFF ratio” value read?
The value was 1.38.

With U7G G9U U10G U11A C12U as the variant, how does the “aptazyme ON/OFF ratio” value read?
Its value is 1.27.

With U7C U8A G9A U10G U11A C12G C13A as the variant, how does the “aptazyme ON/OFF ratio” value read?
The value was 1.06.

Which “aptazyme ON/OFF ratio” value does the source give for U7A G9A U10C U11G C12A C13A here?
Its value is 1.18.

With U7C U8A G9A U10C C12G C13U as the variant, how does the “aptazyme ON/OFF ratio” value read?
The value was 1.19.

With U7G G9C U11C C12G C13G as the variant, how does the “aptazyme ON/OFF ratio” value read?
Its value is 1.07.

With U8C G9U U10A U11G C13A as the variant, how does the “aptazyme ON/OFF ratio” value read?
Its value is 1.2.

With U7A G9U as the variant, how does the “aptazyme ON/OFF ratio” value read?
The value was 1.86.

With U7A G9U U10C C13A as the variant, how does the “aptazyme ON/OFF ratio” value read?
Its value is 1.09.

For U8G U10C U11A C12U, which “aptazyme ON/OFF ratio” value is on record?
Its value is 1.28.

Which “aptazyme ON/OFF ratio” value does the source give for U7G U8C U10A U11A C12A here?
The value was 1.05.

For U7G U8C U10A C12U C13G, which “aptazyme ON/OFF ratio” value is on record?
The value was 1.26.

For U7C U8G G9C C12U C13U, which “aptazyme ON/OFF ratio” value is on record?
Its value is 1.2.

With U7A U8C G9A U10C U11G C13A as the variant, how does the “aptazyme ON/OFF ratio” value read?
The value was 1.33.

Which “aptazyme ON/OFF ratio” value does the source give for U7G U8C G9A U11A C12G C13G here?
Its value is 1.06.

Which “aptazyme ON/OFF ratio” value does the source give for U7C U8A U10C U11A C12A C13U here?
The value was 1.14.

With U7G U8C G9A U11G C12G as the variant, how does the “aptazyme ON/OFF ratio” value read?
The value was 1.14.

For U7A U8A U10G U11A C12U C13U, which “aptazyme ON/OFF ratio” value is on record?
The value was 1.11.

Which “aptazyme ON/OFF ratio” value does the source give for U7G U8A U10G U11C C12A C13U here?
Its value is 1.2.

Which “aptazyme ON/OFF ratio” value does the source give for U7A U8A G9C U10G U11G C13U here?
The value was 1.48.

For U7G U8G G9U U10A U11G C12A C13U, which “aptazyme ON/OFF ratio” value is on record?
The value was 1.11.

Which “aptazyme ON/OFF ratio” value does the source give for U7G U8A G9U U11G C12A here?
The value was 1.07.

With U8A U11A C12U C13U as the variant, how does the “aptazyme ON/OFF ratio” value read?
Its value is 1.18.

With U7A U8G G9U U11A C13A as the variant, how does the “aptazyme ON/OFF ratio” value read?
Its value is 1.38.

With U8A G9C U10A U11C C12U C13A as the variant, how does the “aptazyme ON/OFF ratio” value read?
The value was 1.07.

Which “aptazyme ON/OFF ratio” value does the source give for U7C U8G U10A C12A C13A here?
The value was 1.16.

Which “aptazyme ON/OFF ratio” value does the source give for U7C U8G U10A C12A C13G here?
Its value is 1.08.

For U7G U8C U10G C13A, which “aptazyme ON/OFF ratio” value is on record?
The value was 1.24.

For U8G G9C U11A C12A C13U, which “aptazyme ON/OFF ratio” value is on record?
The value was 1.06.

For U7G U8G G9A U10C C12U, which “aptazyme ON/OFF ratio” value is on record?
The value was 1.59.

With U7C U8A G9C U11C C12U as the variant, how does the “aptazyme ON/OFF ratio” value read?
Its value is 1.14.

For U7G U8C G9C U10G C12U, which “aptazyme ON/OFF ratio” value is on record?
Its value is 1.14.

Which “aptazyme ON/OFF ratio” value does the source give for U7A U8C U10A U11G C12G here?
Its value is 1.32.

Which “aptazyme ON/OFF ratio” value does the source give for U7A U8C U10C U11A C13U here?
The value was 1.17.

For U7G U8G G9U U11A C12G C13A, which “aptazyme ON/OFF ratio” value is on record?
Its value is 1.15.

Which “aptazyme ON/OFF ratio” value does the source give for U7G U10A U11A C13U here?
The value was 1.11.

For U7G U8C G9U U10C C12A C13U, which “aptazyme ON/OFF ratio” value is on record?
Its value is 1.58.

For U7G U8G G9U U10G U11A C13A, which “aptazyme ON/OFF ratio” value is on record?
Its value is 1.13.

With U7C U8C G9U U11A C12U C13A as the variant, how does the “aptazyme ON/OFF ratio” value read?
Its value is 1.18.

Which “aptazyme ON/OFF ratio” value does the source give for U7C U8C U10G C12A here?
Its value is 1.13.

For U7C U11G C12G C13U, which “aptazyme ON/OFF ratio” value is on record?
The value was 1.15.

Which “aptazyme ON/OFF ratio” value does the source give for U7G U8A G9U U10C U11A here?
Its value is 1.41.

Which “aptazyme ON/OFF ratio” value does the source give for U7G U8A G9A C12A here?
Its value is 1.06.

With U7G U8C G9U U10A U11C C13A as the variant, how does the “aptazyme ON/OFF ratio” value read?
Its value is 1.42.

Which “aptazyme ON/OFF ratio” value does the source give for U7G U8G G9C U10A U11A C12U C13A here?
The value was 1.08.

For U7A G9U U10C U11G C12U, which “aptazyme ON/OFF ratio” value is on record?
The value was 1.34.

For U7G U8A G9U U10G U11G C12G C13G, which “aptazyme ON/OFF ratio” value is on record?
Its value is 1.24.

Which “aptazyme ON/OFF ratio” value does the source give for U8A G9A U10A C12A C13U here?
Its value is 1.39.

With U7A U8A G9U C12U C13G as the variant, how does the “aptazyme ON/OFF ratio” value read?
Its value is 1.16.

With U7G U8G G9A U11G C12A as the variant, how does the “aptazyme ON/OFF ratio” value read?
The value was 1.28.

For U7G U8G G9C U11A C12G C13U, which “aptazyme ON/OFF ratio” value is on record?
The value was 1.2.

With U7A U8C U10G U11G C12A as the variant, how does the “aptazyme ON/OFF ratio” value read?
Its value is 1.25.

With U7A U8G U10G U11A C13A as the variant, how does the “aptazyme ON/OFF ratio” value read?
Its value is 1.4.

For U7C G9A C12A C13G, which “aptazyme ON/OFF ratio” value is on record?
Its value is 1.11.

For U7C U8G G9A U10G U11A C13G, which “aptazyme ON/OFF ratio” value is on record?
Its value is 1.1.

With U7C U8G G9C U10G U11G C12A C13G as the variant, how does the “aptazyme ON/OFF ratio” value read?
Its value is 1.11.

With U7A U8C G9A U10G U11G C12U C13A as the variant, how does the “aptazyme ON/OFF ratio” value read?
The value was 1.29.

For U7G U10G U11C C13A, which “aptazyme ON/OFF ratio” value is on record?
The value was 1.11.

Which “aptazyme ON/OFF ratio” value does the source give for U7A U8A G9A U10C U11C C12A here?
The value was 1.18.

Which “aptazyme ON/OFF ratio” value does the source give for U10A C13A here?
The value was 1.11.

For U7A U8G G9C U10C U11C C12A C13G, which “aptazyme ON/OFF ratio” value is on record?
Its value is 1.06.

For U8C G9A U10C U11C C13A, which “aptazyme ON/OFF ratio” value is on record?
Its value is 1.01.
